From PMC4716841, “Attenuation of AMPK signaling by ROQUIN promotes T follicular helper cell formation” (eLife, 2015)

Biological target: T1, AMPKα1, endogenous (mouse), catalytic α1 subunit of adenosine monophosphate-activated protein kinase (mouse (endogenous in primary C57BL/6 …, UniProt Q5EG47 1-559))
T1 construct: AMPK catalytic α1 subunit, encoded by Prkaa1, endogenous in mouse cells; In the cells it may stand with AMPK β and γ subunits; also called α1 subunit of AMPK; encoded by Prkaa1; source: endogenous, primary C57BL/6 MEFs (in situ); endogenous, EL4 cell lysate
Assay: proximity ligation; in situ PLA on primary C57BL/6 MEFs, endogenous proteins; goat anti-AMPKα1 (C20) with rabbit anti-ROQUIN, overnight at 4°C; resting cells or 1 mM arsenite for 1 hr; control PLA GFP:AMPKα1
Settings: partners not purified

T1 sequence (Q5EG47 whole entry): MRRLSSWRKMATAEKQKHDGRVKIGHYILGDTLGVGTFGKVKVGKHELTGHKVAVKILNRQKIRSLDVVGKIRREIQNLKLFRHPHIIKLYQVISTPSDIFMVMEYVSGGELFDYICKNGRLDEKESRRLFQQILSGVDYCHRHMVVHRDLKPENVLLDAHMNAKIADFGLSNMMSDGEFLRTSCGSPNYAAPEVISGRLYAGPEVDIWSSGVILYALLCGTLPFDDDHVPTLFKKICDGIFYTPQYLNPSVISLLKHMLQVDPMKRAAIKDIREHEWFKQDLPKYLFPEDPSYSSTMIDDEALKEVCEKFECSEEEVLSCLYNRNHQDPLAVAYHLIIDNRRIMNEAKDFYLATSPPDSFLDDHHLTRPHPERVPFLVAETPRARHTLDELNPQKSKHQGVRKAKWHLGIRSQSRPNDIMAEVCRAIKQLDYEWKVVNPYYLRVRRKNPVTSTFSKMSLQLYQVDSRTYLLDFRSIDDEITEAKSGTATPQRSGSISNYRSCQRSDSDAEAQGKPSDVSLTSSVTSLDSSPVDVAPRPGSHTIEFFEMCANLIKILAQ

fold PLA frequency over the ROQUIN:AGO2 PLA of earlier work: ≥ 15 fold
B1: ROQUIN, endogenous (mouse) (natural protein, UniProt Q4VGL6 1-1130, looked up)
chain: MPVQAPQWTDFLSCPICTQTFDETIRKPISLGCGHTVCKMCLNKLHRKACPFDQTTINTDIELLPVNSALLQLVGAQIPEQQPITLCSGVEDTKHYEEAKKCVEELALYLKPLSSARGVGLNSTTQSVLSRPMQRKLVTLVHCQLVEEEGRIRAMRAARSLGERTVTELILQHQNPQQLSSNLWAAVRARGCQFLGPAMQEEALKLVLLALEDGSALSRKVLVLFVVQRLEPRFPQASKTSIGHVVQLLYRASCFKVTKRDEDSSLMQLKEEFRTYEALRREHDSQIVQIAMEAGLRIAPDQWSSLLYGDQSHKSHMQSIIDKLQTPASFAQSVQELTIALQRTGDPANLNRLRPHLELLANIDPSPDAPPPTWEQLENGLVAVRTVVHGLVDYIQNHSKKGADQQQPPQHSKYKTYMCRDMKQRGGCPRGASCTFAHSQEELEKFRKMNKRLVPRRPLSASLGQLNEVGLPSAPILSDESAVDLSNRKPPALPNGIASSGSTVTQLIPRGTDPSFDSSLKPVKLDHLSSSAPGSPPDLLESAPKSISALPVNPHPVPPRGPTDLPPMPVTKPIQMVPRGSQLYPAQQADVYYQDPRGSAPAFETAPYQQGMYYTPPPCVSRFVRPPPSAPEPGPPYLDHYSPYLQDRVINSQYGTQPQQYPPMYPAHYDGRRVYPAQSYTREEMFRESPIPIDIPSAAVPSYVPESRERYQQVEGYYPVAPHPAQIRPSYPRDPPYSRLPPPQPHPSLDELHRRRKEIMAQLEERKVISPPPFAPSPTLPPAFHPEEFLDEDLKVAGKYKANDYSQYSPWSCDTIGSYIGTKDAKPKDVVAAGSVEMMNVESKGTREQRLDLQRRAVETSDDDLIPFGDRPTVSRFGAISRTSKTLYQGAGPLQAIAPQGAPTKSINISDYSAYGAHGGWGDSPYSPHANIPPQGHFIEREKMSMAEVASHGKPLLSAEREQLRLELQQLNHQISQQTQLRGLEAVSNRLVLQREVNTLASQPQPPQLPPKWPGMISSEQLSLELHQVEREIGKRTRELSMENQCSVDMKSKLGTSKQAENGQPEPQNKIRTEDLTLTFSDVPNGSALTQENLSLLSNKTSSLNLSEDSEGGGDNNDSQRSGVVSNSAP
notes: ROQUIN (ROQUIN1), encoded by Rc3h1, endogenous in mouse cells; also called ROQUIN1; encoded by Rc3h1; source: endogenous, primary C57BL/6 MEFs (in situ); endogenous, EL4 cell lysate
